Laboratory results taken from US20260226152A1 (GlaxoSmithKline, published 2026).
Numbering of substitutions follows the chain as printed. Read-outs that look alike come from different tables or passages of the source.

Experiments:
Experiment in all cases: cell-based or functional assay
Cynomolgus monkey IL-18 = target: T1, Cynomolgus monkey IL-18 (Rhesus monkey (identical to cynomolgus …, UniProt Q9BGI5 37-193))
T1 sequence: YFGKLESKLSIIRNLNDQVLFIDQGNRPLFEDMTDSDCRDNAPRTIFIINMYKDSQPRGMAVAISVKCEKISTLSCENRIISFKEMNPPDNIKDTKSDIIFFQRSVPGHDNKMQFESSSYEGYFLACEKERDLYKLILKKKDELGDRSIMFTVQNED

Human IL-18 [1] = target: T2, Human IL-18 (human, UniProt Q14116 37-193)
T2 sequence: T1 sequence with I11V, N50S, A63T, R79K, Y134F, K141E

Human IL-18 [2] = target: T2, Human IL-18; remark: listed apart in the source

B1: IL-18 control 2 (antibody, V domains shown)
VH: QVQLVQSGAEVKKPGASVKVSCKVSGEISTGYYFHWVRQAPGKGLEWMGRIDPEDDSTKYAERFKDRVTMTEDTSTDTAYMELSSLRSEDTAVYYCTTWRIYRDSSGRPFYVMDAWGQGTLVTVSS
VL: DIQMTQSPSSVSASVGDRVTITCLASEDIYTYLTWYQQKPGKAPKLLIYGANKLQDGVPSRFSGSGSGTDYTLTISSLQPEDFATYYCLQGSKFPLTFGQGTKLEIK
Cynomolgus monkey IL-18
  IC50 (pM, Mean), neutralisation of cynomolgus IL-18-induced IFNγ secretion by KG-1 cells: 64.6 pM
  pIC50 (GeoMean), neutralisation of cynomolgus IL-18-induced IFNγ secretion by KG-1 cells: 10.2
Human IL-18 [1]
  IC50 (pM, Mean), neutralisation of human IL-18-induced IFNγ secretion by KG-1 cells: 41 pM
  pIC50 (GeoMean), neutralisation of human IL-18-induced IFNγ secretion by KG-1 cells: 10.4
Human IL-18 [2]
  IC50 (pM, Mean), neutralisation of human IL-18-induced IFNγ secretion by KG-1 cells: 39.8 pM
  pIC50 (GeoMean), neutralisation of human IL-18-induced IFNγ secretion by KG-1 cells: 10.4
